Here are results for 32 molecules from article PMC10786891, “Massively parallel profiling of RNA-targeting CRISPR-Cas13d”.

Numbering of substitutions follows the chain as printed. In names and notes the source's numbering stands.

The chains are these.
B1: target 1 MT 5'PFS GGG 3'PFS UCU (mixed)
RNA 1: CACCCGUGCAAAAAUGCAGGGGUCUAAAACUGAGCGGAUAACCUCUCUAUGG
RNA 2: GGGAAUGGAUCCACAUCUACGAAUUCGGGCCAUAGAGAGGUUAUCCGCUCAUCUAGAUCGGAAGAGCACACGU
B2: target 1 MT 5'PFS GUG 3'PFS AGG (mixed)
RNA 1: B1 RNA 1
RNA 2: B1 RNA 2 with G28U, U52A, C53G, U54G
B3: target 1 MT 5'PFS AGU 3'PFS AAA (mixed)
RNA 1: B1 RNA 1
RNA 2: B1 RNA 2 with G27A, G29U, U52A, C53A, U54A
B4: target 1 MT 5'PFS UCA 3'PFS AAG (mixed)
RNA 1: B1 RNA 1
RNA 2: B1 RNA 2 with G27U, G28C, G29A, U52A, C53A, U54G
B5: target 1 MT 5'PFS GCA 3'PFS AGG (mixed)
RNA 1: B1 RNA 1
RNA 2: B1 RNA 2 with G28C, G29A, U52A, C53G, U54G
B6: target 1 MT 5'PFS AAC 3'PFS UAU (mixed)
RNA 1: B1 RNA 1
RNA 2: B1 RNA 2 with G27A, G28A, G29C, C53A
B7: target 1 MT 5'PFS GUG 3'PFS CGC (mixed)
RNA 1: B1 RNA 1
RNA 2: B1 RNA 2 with G28U, U52C, C53G, U54C
B8: target 1 MT 5'PFS UGG 3'PFS AGU (mixed)
RNA 1: B1 RNA 1
RNA 2: B1 RNA 2 with G27U, U52A, C53G
B9: target 1 MT 5'PFS GGC 3'PFS CCC (mixed)
RNA 1: B1 RNA 1
RNA 2: B1 RNA 2 with G29C, U52C, U54C
B10: target 1 insC 3' of 20,insG 3' of 18 (mixed)
RNA 1: B1 RNA 1
RNA 2: GGGAAUGGAUCCACAUCUACGAAUUCGUACCACUAGGAGAGGUUAUCCGCUCACCGAGAUCGGAAGAGCACACGU
B11: target 1 MT 5'PFS CUA 3'PFS UCU (mixed)
RNA 1: B1 RNA 1
RNA 2: B1 RNA 2 with G27C, G28U, G29A
B12: target 1 MT 5'PFS AAC 3'PFS UAC (mixed)
RNA 1: B1 RNA 1
RNA 2: B1 RNA 2 with G27A, G28A, G29C, C53A, U54C
B13: target 1 MT 5'PFS GCA 3'PFS AGA (mixed)
RNA 1: B1 RNA 1
RNA 2: B1 RNA 2 with G28C, G29A, U52A, C53G, U54A
B14: target 1 MT 5'PFS GUG 3'PFS CGA (mixed)
RNA 1: B1 RNA 1
RNA 2: B1 RNA 2 with G28U, U52C, C53G, U54A
B15: target 1 MT 5'PFS GUG 3'PFS AGC (mixed)
RNA 1: B1 RNA 1
RNA 2: B1 RNA 2 with G28U, U52A, C53G, U54C
B16: target 1 MT 5'PFS GUG 3'PFS CGU (mixed)
RNA 1: B1 RNA 1
RNA 2: B1 RNA 2 with G28U, U52C, C53G
B17: target 1 MT 5'PFS UGC 3'PFS CUG (mixed)
RNA 1: B1 RNA 1
RNA 2: B1 RNA 2 with G27U, G29C, U52C, C53U, U54G
B18: target 1 MT 5'PFS UAA 3'PFS UGC (mixed)
RNA 1: B1 RNA 1
RNA 2: B1 RNA 2 with G27U, G28A, G29A, C53G, U54C
B19: target 1 MT 5'PFS AAG 3'PFS CGA (mixed)
RNA 1: B1 RNA 1
RNA 2: B1 RNA 2 with G27A, G28A, U52C, C53G, U54A
B20: target 1 MT 5'PFS GCA 3'PFS AGU (mixed)
RNA 1: B1 RNA 1
RNA 2: B1 RNA 2 with G28C, G29A, U52A, C53G
B21: target 1 insC 3' of 17,insC 3' of 10 (mixed)
RNA 1: B1 RNA 1
RNA 2: GGGAAUGGAUCCACAUCUACGAAUUCGUACCAUAGCAGAGGUUCAUCCGCUCACCGAGAUCGGAAGAGCACACGU
B22: target 1 MT 5'PFS UCA 3'PFS AAU (mixed)
RNA 1: B1 RNA 1
RNA 2: B1 RNA 2 with G27U, G28C, G29A, U52A, C53A
B23: target 1 MT 5'PFS UCA 3'PFS AAA (mixed)
RNA 1: B1 RNA 1
RNA 2: B1 RNA 2 with G27U, G28C, G29A, U52A, C53A, U54A
B24: target 1 MT 5'PFS AGU 3'PFS AAG (mixed)
RNA 1: B1 RNA 1
RNA 2: B1 RNA 2 with G27A, G29U, U52A, C53A, U54G
B25: target 1 MT 5'PFS GUG 3'PFS AGU (mixed)
RNA 1: B1 RNA 1
RNA 2: B1 RNA 2 with G28U, U52A, C53G
B26: target 1 MT 5'PFS UGC 3'PFS CUA (mixed)
RNA 1: B1 RNA 1
RNA 2: B1 RNA 2 with G27U, G29C, U52C, C53U, U54A
B27: target 1 MT 5'PFS UAU 3'PFS CUU (mixed)
RNA 1: B1 RNA 1
RNA 2: B1 RNA 2 with G27U, G28A, G29U, U52C, C53U
B28: target 1 MT 5'PFS UAC 3'PFS CGG (mixed)
RNA 1: B1 RNA 1
RNA 2: B1 RNA 2 with G27U, G28A, G29C, U52C, C53G, U54G
B29: target 1 MT 5'PFS GUG 3'PFS CGG (mixed)
RNA 1: B1 RNA 1
RNA 2: B1 RNA 2 with G28U, U52C, C53G, U54G
B30: target 1 MT 5'PFS AGU 3'PFS AAC (mixed)
RNA 1: B1 RNA 1
RNA 2: B1 RNA 2 with G27A, G29U, U52A, C53A, U54C
B31: target 1 G13A,C22U (mixed)
RNA 1: B1 RNA 1
RNA 2: B1 RNA 2 with G28U, G29A, C30U, G39A, U52C, U54G
B32: target 1 MT 5'PFS UCA 3'PFS AAC (mixed)
RNA 1: B1 RNA 1
RNA 2: B1 RNA 2 with G27U, G28C, G29A, U52A, C53A, U54C

In this data set the target is T1, EsCas13d, nuclease-dead (Eubacterium siraeum, UniProt B0MS50, R295A;H300A;R849A;H854A).
T1 sequence: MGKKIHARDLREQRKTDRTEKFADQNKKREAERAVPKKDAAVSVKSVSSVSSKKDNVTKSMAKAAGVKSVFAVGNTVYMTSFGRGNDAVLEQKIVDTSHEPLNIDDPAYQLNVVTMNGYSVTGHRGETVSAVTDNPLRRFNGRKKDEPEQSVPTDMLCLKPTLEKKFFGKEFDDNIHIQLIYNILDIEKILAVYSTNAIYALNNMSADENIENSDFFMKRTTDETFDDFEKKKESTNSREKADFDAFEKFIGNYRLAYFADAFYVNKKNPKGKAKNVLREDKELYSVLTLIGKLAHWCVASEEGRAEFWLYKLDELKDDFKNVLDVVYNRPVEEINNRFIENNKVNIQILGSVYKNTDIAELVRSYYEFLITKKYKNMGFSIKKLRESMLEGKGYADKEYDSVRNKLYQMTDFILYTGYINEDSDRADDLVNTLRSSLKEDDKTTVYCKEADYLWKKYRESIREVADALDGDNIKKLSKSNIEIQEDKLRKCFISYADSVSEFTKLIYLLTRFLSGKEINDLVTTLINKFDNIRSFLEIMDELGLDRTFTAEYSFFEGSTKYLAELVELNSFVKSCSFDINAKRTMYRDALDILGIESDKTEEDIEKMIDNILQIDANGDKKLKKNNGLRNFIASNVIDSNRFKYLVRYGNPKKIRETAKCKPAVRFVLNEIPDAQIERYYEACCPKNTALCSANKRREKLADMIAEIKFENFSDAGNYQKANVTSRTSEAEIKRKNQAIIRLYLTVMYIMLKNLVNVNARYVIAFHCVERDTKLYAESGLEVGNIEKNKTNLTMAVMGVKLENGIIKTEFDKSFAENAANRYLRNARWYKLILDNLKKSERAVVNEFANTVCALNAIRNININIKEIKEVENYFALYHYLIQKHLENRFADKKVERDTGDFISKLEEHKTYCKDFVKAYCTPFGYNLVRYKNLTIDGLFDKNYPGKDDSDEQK
Kind of data set: crRNA (strand 1, pre-loaded); Mg2+; 40 mM Tris-HCl pH 7.5, 150 mM NaCl, 6 mM MgCl2, 1 mM DTT, 0.1% Tween-20, 0.2 mg/ml BSA; 25 C; 10 min per concentration, then washed. The settings on record: tags: His6-TwinStrep-SUMO cleaved; N-terminal SNAP kept (SNAP-Surface 488); label: 3' end held by stalled T7 RNA polymerase.
As for B1, the Kd is 0.0146 ± 0.0021 µM.

For the molecule B2, the affinity, expressed as Kd, was 0.0287 ± 0.00175 µM. Regarding B3, the Kd was ~0.1 µM. On to B4, for which the Kd was ~0.07 µM. B5 returned a Kd of 0.0435 ± 0.01 µM. For the molecule B6, the Kd amounted to 0.015 ± 0.0055 µM.

On to B7, for which the Kd is 0.0226 ± 0.0017 µM.

B8 came in with a Kd of 0.067 ± 0.033 µM. On to B9, for which the Kd is ~0.025 µM. B10 displayed a dissociation constant Kd of 0.0129 ± 0.0008 µM. B11 registered a Kd of 0.0049 ± 0.0007 µM. Consider B12, for which the Kd worked out at 0.031 ± 0.013 µM.

With B13, the affinity, expressed as Kd, was 0.0225 ± 0.00415 µM.

On to B14, for which binding was put at a Kd of 0.0229 ± 0.0022 µM. B15 came in with a Kd of 0.00945 ± 0.00075 µM.

Molecule B16 showed a Kd of 0.00683 ± 0.000425 µM. Take B17: binding was put at a Kd of 0.0132 ± 0.0028 µM. B18: binding was put at a Kd of 0.031 ± 0.008 µM. B19 showed a Kd of 0.038 ± 0.016 µM. Under B20 stands 0.023 ± 0.005 µM; under B21, 0.052 ± 0.018 µM; under B22, 0.0192 ± 0.00635 µM. The molecule B23 gave a Kd of 0.021 ± 0.009 µM. In the case of B24, the Kd was 0.055 ± 0.024 µM. For B25, binding was put at a Kd of 0.0115 ± 0.0008 µM. The result for B26 reads 0.018 ± 0.007 µM. B27 displayed a Kd of 0.0395 ± 0.0125 µM. In the case of B28, the Kd was found to be 0.0445 ± 0.021 µM. Take B29: binding was put at a Kd of 0.0234 ± 0.00185 µM. Under B30 stands 0.049 ± 0.016 µM. Under B31 stands 0.0107 ± 0.0017 µM; under B32, 0.0186 ± 0.0057 µM.

As usually defined, the Kd is a measure of binding affinity in units of concentration. A lower Kd goes with a tighter complex.
